Patent US20240132578A1

What was measured:
[1] = target: HIV-1 93UG077 Env (pseudovirus) (HIV-1); assay: cell-based or functional assay
[2] = target: HIV-1 APV17 Env (pseudovirus) (HIV-1); assay: cell-based or functional assay
[3] = target: HIV-1 JR-CSF Env S306A (HIV-1 (isolate JR-CSF, clade B)) (UniProt P20871); assay: cell-based or functional assay
[4] = target: HIV-1 envelope glycoprotein (Env) of isolate APV6 (HIV-1); assay: cell-based or functional assay
[5] = target: HIV-1 envelope glycoprotein (Env) of isolate MGRM-A-010 (HIV-1); assay: cell-based or functional assay
[6] = target: HIV-1 envelope glycoprotein (Env) of isolate MGRM-AG-005 (HIV-1); assay: cell-based or functional assay
[7] = target: HIV-1 MGRM-C-026 envelope glycoprotein (Env), clade C pseudovirus (HIV-1); assay: cell-based or functional assay
[8] = target: HIV-1 MGRM-D-018 envelope glycoprotein (Env), clade D pseudovirus (HIV-1); assay: cell-based or functional assay
[9] = target: Endo H treated JR-FL gP120 (HIV-1 JR-FL); assay: ELISA, antigen-coated wells, mAb titrated; EC50 by nonlinear regression
[10] = target: aMLV envelope protein on virus (negative control) (aMLV); assay: cell-based or functional assay
[11] = target: HIV-1 93UG077 envelope glycoprotein (Env) (HIV-1); assay: cell-based or functional assay
[12] = target: HIV-1 Env of isolate 92BR020 (subtype B), on pseudovirus (HIV-1); assay: cell-based or functional assay
[13] = target: HIV-1 Env of isolate MG RM-D-018 (subtype D) (HIV-1); assay: cell-based or functional assay
[14] = target: HIV-1 Env of isolate MGRM-Chronic-B-020 (subtype B), on pseudovirus (HIV-1); assay: cell-based or functional assay
[15] = target: HIV-1 Env of pseudovirus 92UG001 (HIV-1); assay: cell-based or functional assay
[16] = target: HIV-1 JR-CSF Env N241A (HIV-1 (isolate JR-CSF)) (UniProt P20871); assay: cell-based or functional assay
[17] = target: aMLV envelope protein on pseudovirus (control virus); assay: cell-based or functional assay

Sequence of 5329_C19 (PGT-136) (antibody) (VH): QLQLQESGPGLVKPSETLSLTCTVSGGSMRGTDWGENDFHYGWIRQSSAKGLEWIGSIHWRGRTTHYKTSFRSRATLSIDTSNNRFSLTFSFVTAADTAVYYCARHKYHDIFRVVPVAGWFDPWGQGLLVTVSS
Sequence of 5329_C19 (PGT-136) (antibody) (VL): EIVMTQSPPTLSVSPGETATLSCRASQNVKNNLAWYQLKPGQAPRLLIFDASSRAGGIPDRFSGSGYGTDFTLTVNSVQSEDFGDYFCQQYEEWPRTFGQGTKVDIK

Substance: 5123_A06 (PGT-125) (antibody)
- Neutralization by PGT-125, IC50 [1]: 0.0262 µg/mL
- Neutralization by PGT-125, IC80 [1]: 0.0926 µg/mL
- Neutralization by PGT-125, IC90 [1]: 0.206 µg/mL
- Neutralization by PGT-125, IC95 [1]: 0.487 µg/mL
- Neutralization by PGT-125, IC50 [2]: 7.31 µg/mL
- Neutralization by PGT-125, IC80 [2]: > 10 µg/mL
- Neutralization by PGT-125, IC90 [2]: > 10 µg/mL
- Neutralization by PGT-125, IC95 [2]: > 10 µg/mL
- Fold IC50 increase relative to wild-type [3]: 1.2 fold

Substance: 5141_B17 (PGT-126) (antibody)
- Neutralization IC80 [4]: 0.0681 µg/mL
- Neutralization IC90 [4]: 0.123 µg/mL
- Neutralization IC95 [4]: 0.213 µg/mL
- neutralization IC50 [4]: 0.0249 µg/mL
- Neutralization IC80 [5]: 0.0137 µg/mL
- Neutralization IC90 [5]: 0.0316 µg/mL
- Neutralization IC95 [5]: 0.0687 µg/mL
- neutralization IC50 [5]: 3.3 ng/mL
- Neutralization IC80 [6]: > 10 µg/mL
- Neutralization IC90 [6]: > 10 µg/mL
- Neutralization IC95 [6]: > 10 µg/mL
- neutralization IC50 [6]: 1.35 µg/mL

Substance: 4858_P08 (PGT-123) (antibody)
- IC50, pseudovirus neutralization [7]: 3.1 ng/mL
- IC80 (pseudovirus neutralization) [7]: 9.4 ng/mL
- IC90 (pseudovirus neutralization) [7]: 0.0183 µg/mL
- IC95 (pseudovirus neutralization) [7]: 0.0338 µg/mL
- IC50, pseudovirus neutralization [8]: 4.7 ng/mL
- IC80 (pseudovirus neutralization) [8]: 0.0175 µg/mL
- IC90 (pseudovirus neutralization) [8]: 0.0381 µg/mL
- IC95 (pseudovirus neutralization) [8]: 0.0791 µg/mL

Substance: 4838_L06 (PGT-121) (antibody)
- EC50 [9]: > 10 µg/mL

Substance: 4877_D15 (PGT-122) (antibody)
- Neutralization IC80 [10]: > 10 µg/mL
- Neutralization IC90 [10]: > 10 µg/mL
- Neutralization IC95 [10]: > 10 µg/mL
- neutralization IC50 [10]: > 10 µg/mL

Substance: 5329_C19 (PGT-136) (antibody)
- Neutralization IC80 [11]: > 10 µg/mL
- Neutralization IC90 [11]: > 10 µg/mL
- Neutralization IC95 [11]: > 10 µg/mL
- neutralization IC50 [11]: > 10 µg/mL

Substance: PGV04 (antibody)
- IC50, single-round pseudovirus neutralization [12]: 0.25 µg/mL
- IC50 (µg/mL), pseudovirus neutralization [13]: 17.5 µg/mL
- IC50, single-round pseudovirus neutralization [14]: 1.26 µg/mL
- IC50, pseudovirus neutralization [15]: 0.553 µg/mL

Substance: 5343_B08 (PGT-135) (antibody)
- Fold IC50 increase relative to wild-type [16]: 0.1 fold
- Neutralization IC80 [17]: > 10 µg/mL
- Neutralization IC90 [17]: > 10 µg/mL
- Neutralization IC95 [17]: > 10 µg/mL
- neutralization IC50 [17]: > 10 µg/mL
